Consider 2 molecules from paper PMC8287531 (The Journal of Cell Biology, 2021).

Test [1] addresses T1, TLNRD1 four-helix domain (TLNRD1-4H, residues 143-273) (human, UniProt Q9H1K6 143-273).
T1 construct: Human TLNRD1 four-helix domain, residues 143-273, sub-cloned into pET151; Density was traced for residues 148-270 in PDB 6XZ3; also called 4H domain
As to the kind of experiment: fluorescence polarisation; serial dilution of protein against 100 nM fluorescein- or BODIPY-TMR-coupled peptide; 20°C; one-site total binding equation; triplicate. To be noted: both partners purified. (In general: Polarisation of emitted light reports the rotation of a fluorescent probe.)

A further test has as its target T2, talin R7R8 rod domains (UniProt Q9Y490 1359-1659).
T2 construct: Talin R7R8 rod domains; the construct used in the assays is not described in the methods
The description is as above. The settings on record: both partners purified.

T1 sequence (Q9H1K6 143-273): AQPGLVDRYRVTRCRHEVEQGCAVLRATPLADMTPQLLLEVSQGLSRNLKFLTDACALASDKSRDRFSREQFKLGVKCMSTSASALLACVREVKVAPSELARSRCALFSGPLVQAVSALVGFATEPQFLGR
T2 sequence (Q9Y490 1359-1659): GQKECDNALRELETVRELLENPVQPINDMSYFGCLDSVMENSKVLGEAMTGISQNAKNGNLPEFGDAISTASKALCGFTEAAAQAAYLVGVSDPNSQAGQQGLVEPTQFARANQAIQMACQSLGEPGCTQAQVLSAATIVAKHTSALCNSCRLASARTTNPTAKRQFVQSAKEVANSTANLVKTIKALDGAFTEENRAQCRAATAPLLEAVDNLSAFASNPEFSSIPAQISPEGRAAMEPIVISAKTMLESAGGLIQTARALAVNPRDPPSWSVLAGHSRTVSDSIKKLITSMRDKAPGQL

B1: lamellipodin(20-46) peptide (peptide)
peptide: EDQDLDKMFGAWLGELDRLTQSLDSDKC
modifications: coupled with either a fluorescein or BODIPY-TMR dye (which one is not stated for this peptide)
notes: Lamellipodin residues 20-46; added C-terminal cysteine residue; source: synthetic peptide (GLBiochem, Shanghai)
B1 had a Kd in test [1] of 9 µM.

B2: KANK1(30-60) peptide, KN domain LD motif, BODIPY-labeled (peptide)
peptide: PYFVETPYGFQLDLDFVKYVDDIQKGNTIKKC
modifications: BODIPY-labeled
notes: KANK1 KN domain LD motif, residues 30-60; added C-terminal cysteine residue; also called KANK1 KN domain LD motif (residues 30-60); source: synthetic peptide (GLBiochem, Shanghai)
In the test with talin R7R8 rod domains, B2 displayed a Kd of 0.35 µM.

What is called Kd is the equilibrium constant for the complex coming apart. Read a high Kd as weaker binding.
